12 molecules from paper PMC4737164, “DNA recognition for virus assembly through multiple sequence-independent interactions with a helix-turn-helix motif” can be followed below.

The target in data set [1] is T1, SF6 small terminase (GP1) DBD wild type (Bacillus phage SF6, UniProt P68928 1-68).
T1 sequence: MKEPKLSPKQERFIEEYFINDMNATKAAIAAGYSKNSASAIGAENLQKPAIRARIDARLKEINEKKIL
Description: AUC; 2-3 proteins per DNA, saturated; 20 mM HEPES, 150 mM KCl (300 mM in second ReDCaT), pH 7.0, +0.05% Tween 20 for SPR; ReDCaT 20 uM protein; AUC 20 C; NMR 20 mM MES, 150 mM KCl, pH 6.0, 25 C. The note with it: protein: recombinant; tags: C-terminal 3C site-His tag, cleaved; label: 3'-ATTO 647N strand 1; blunt.

In data set [2] the target is T1, SF6 small terminase (GP1) DBD wild type. Nature of the data set: SPR; 300 mM KCl; above-average density; 20 mM HEPES, 150 mM KCl (300 mM in second ReDCaT), pH 7.0, +0.05% Tween 20 for SPR; ReDCaT 20 uM protein; AUC 20 C; NMR 20 mM MES, 150 mM KCl, pH 6.0, 25 C. The note with it: protein: recombinant; tags: C-terminal 3C site-His tag, cleaved; label: 5'-biotin strand 3; nicked 50 bp.

For data set [3] the target is unchanged. Description: AUC; 1 mM protein; 5 proteins per DNA, not saturated; 20 mM HEPES, 150 mM KCl (300 mM in second ReDCaT), pH 7.0, +0.05% Tween 20 for SPR; ReDCaT 20 uM protein; AUC 20 C; NMR 20 mM MES, 150 mM KCl, pH 6.0, 25 C. The note with it: protein: recombinant; tags: C-terminal 3C site-His tag, cleaved; label: 5'-TAMRA strand 1; blunt.
For data set [4] the target is unchanged. Description: SPR; 300 mM KCl; increased, approaching F5; 20 mM HEPES, 150 mM KCl (300 mM in second ReDCaT), pH 7.0, +0.05% Tween 20 for SPR; ReDCaT 20 uM protein; AUC 20 C; NMR 20 mM MES, 150 mM KCl, pH 6.0, 25 C. The note with it: protein: recombinant; tags: C-terminal 3C site-His tag, cleaved; label: 5'-biotin strand 3; nicked. (In general: SPR reads the build-up and loss of mass on a sensor chip optically.)

For data set [5], the target named is T2, SF6 small terminase DBD K48A (Bacillus phage SF6, UniProt P68928 1-68, K48A).
T2 sequence: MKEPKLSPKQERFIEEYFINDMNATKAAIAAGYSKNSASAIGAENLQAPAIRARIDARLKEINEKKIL
Description: SPR; up to 1500 uM protein; 20 mM HEPES, 150 mM KCl (300 mM in second ReDCaT), pH 7.0, +0.05% Tween 20 for SPR; ReDCaT 20 uM protein; AUC 20 C; NMR 20 mM MES, 150 mM KCl, pH 6.0, 25 C. The conditions noted are these: protein: recombinant; tags: C-terminal 3C site-His tag, cleaved; label: 5'-biotin strand 1 (SPR); none in NMR; blunt.

Data set [6] concerns the target T3, SF6 small terminase DBD K26A (Bacillus phage SF6, UniProt P68928 1-68, K26A).
T3 sequence: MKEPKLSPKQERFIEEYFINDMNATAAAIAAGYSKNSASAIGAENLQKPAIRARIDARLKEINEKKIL
Description: SPR; McGhee-von Hippel, site size 3 bp; 20 mM HEPES, 150 mM KCl (300 mM in second ReDCaT), pH 7.0, +0.05% Tween 20 for SPR; ReDCaT 20 uM protein; AUC 20 C; NMR 20 mM MES, 150 mM KCl, pH 6.0, 25 C. The note with it: protein: recombinant; tags: C-terminal 3C site-His tag, cleaved; label: 5'-biotin strand 1 (SPR); none in NMR; blunt.

Data set [7] concerns the target T1, SF6 small terminase (GP1) DBD wild type. Description: SPR; McGhee-von Hippel, site size 3 bp; not saturated; 20 mM HEPES, 150 mM KCl (300 mM in second ReDCaT), pH 7.0, +0.05% Tween 20 for SPR; ReDCaT 20 uM protein; AUC 20 C; NMR 20 mM MES, 150 mM KCl, pH 6.0, 25 C. The conditions noted are these: protein: recombinant, tags: C-terminal 3C site-His tag, cleaved, label: 5'-biotin strand 1 (SPR), blunt.

Data set [8] has the same target. Nature of the data set: AUC; 1.5 mM protein; 1:1; Kd stated in mM range; 20 mM HEPES, 150 mM KCl (300 mM in second ReDCaT), pH 7.0, +0.05% Tween 20 for SPR; ReDCaT 20 uM protein; AUC 20 C; NMR 20 mM MES, 150 mM KCl, pH 6.0, 25 C. The conditions noted are these: protein: recombinant; tags: C-terminal 3C site-His tag, cleaved; label: 3'-ATTO 647N in AUC; hairpin, 5 bp, TTTT loop.

The target is the same in data set [9]. Nature of the data set: AUC; 1:1; Kd stated in mM range; 20 mM HEPES, 150 mM KCl (300 mM in second ReDCaT), pH 7.0, +0.05% Tween 20 for SPR; ReDCaT 20 uM protein; AUC 20 C; NMR 20 mM MES, 150 mM KCl, pH 6.0, 25 C. The conditions noted are these: protein: recombinant; tags: C-terminal 3C site-His tag, cleaved; label: 5'-6-FAM in AUC; hairpin, 5 bp, 1 nt 5' overhang.

For data set [10] the target is unchanged. Description: SPR; 150 mM KCl; superstoichiometric, low affinity; 20 mM HEPES, 150 mM KCl (300 mM in second ReDCaT), pH 7.0, +0.05% Tween 20 for SPR; ReDCaT 20 uM protein; AUC 20 C; NMR 20 mM MES, 150 mM KCl, pH 6.0, 25 C. The note with it: protein: recombinant; tags: C-terminal 3C site-His tag, cleaved; label: 5'-biotin strand 3; nicked 50 bp.
For data set [11] the target is unchanged. Nature of the data set: SPR; 300 mM KCl; not significantly changed vs P6/F3; 20 mM HEPES, 150 mM KCl (300 mM in second ReDCaT), pH 7.0, +0.05% Tween 20 for SPR; ReDCaT 20 uM protein; AUC 20 C; NMR 20 mM MES, 150 mM KCl, pH 6.0, 25 C. The note with it: protein: recombinant; tags: C-terminal 3C site-His tag, cleaved; label: 5'-biotin strand 3; nicked 50 bp.

B1: 11-bp DNA (dsDNA)
DNA 1: GCCTACCCTAC
DNA 2: GTAGGGTAGGC
Turning to B1, the binding result in [1] is “binds”.

B2: F10 (S10) (dsDNA)
DNA 1: TTGGGGCAGAAAACTTACAGAAACCAGCTA
DNA 2: TAGCTGGTTTCTGTAAGTTTTCTGCCCCAACCTACCCTACGTCCTCCTGC
DNA 3: GCAGGAGGACGTAGGGTAGG
With B2, in data set [2], the binding result is “binds”.

B3: 30-bp AUC DNA (dsDNA)
DNA 1: ATAGAAAAAACCTCCTTAAAACTATATTTG
DNA 2: CAAATATAGTTTTAAGGAGGTTTTTTCTAT
With B3, the binding result in [3] is recorded as “binds”.

B4: P8_F5 (dsDNA)
DNA 1: TTTCTATGGGAGAAGTAAACCTAAACTATCTCCAAA
DNA 2: TTTGGAGATAGTTTAGGTTTACTTCTCCCATAGAAACCTACCCTACGTCCTCCTGC
DNA 3: GCAGGAGGACGTAGGGTAGG
As to B4, the binding result in data set [4] is “binds”.

B5: F3 (S3) (dsDNA)
DNA 1: ATTAGGTTTATATAAGGTTTTAATTAGGTT
DNA 2: AACCTAATTAAAACCTTATATAAACCTAATCCTACCCTACGTCCTCCTGC
DNA 3: GCAGGAGGACGTAGGGTAGG
On to B5, for which the binding result in [2] was “binds”.

B6: 20-bp linker dsDNA (dsDNA)
DNA 1: GCAGGAGGACGTAGGGTAGG
DNA 2: CCTACCCTACGTCCTCCTGC
As for B6, the binding result in [5] is recorded as “no binding”. Also, the values for the Kd in data set [6] and in data set [7] (none in NMR) were 3080 ± 30 µM and 920 ± 10 µM, respectively.

Consider GTAGGTTTTCCTAC (structured_DNA) [14-nt hairpin], for which the binding result in data set [8] is “binds”.

B7: 18C-hairpin (structured_DNA)
DNA 1: AGTAGG
DNA 2: CCTAC
modifications: 18C spacer joins 3' end of strand 1 to 5' end of strand 2
Regarding B7, in data set [9], the binding result is reported as “binds”.

B8: 30-bp linker dsDNA (dsDNA)
DNA 1: GAGACCTGGAACGCGATCATTGGCAGCACG
DNA 2: CGTGCTGCCAATGATCGCGTTCCAGGTCTC
As for B8, the Kd in [7] stood at 1850 ± 20 µM.

B9: P6 (boxA) (dsDNA)
DNA 1: ATTAGGTTTATATAAGGTTTTATCATTCAG
DNA 2: CTGAATGATAAAACCTTATATAAACCTAATCCTACCCTACGTCCTCCTGC
DNA 3: GCAGGAGGACGTAGGGTAGG
Take B9: the binding result in [10] is given as “binds”.

B10: P6_F3 (dsDNA)
DNA 1: ATTAGGTTTATATAAGGTTTTATACATCAG
DNA 2: CTGATGTATAAAACCTTATATAAACCTAATCCTACCCTACGTCCTCCTGC
DNA 3: GCAGGAGGACGTAGGGTAGG
Consider B10, for which, in data set [11], the binding result is reported as “binds”.

B11: F5 (S5) (dsDNA)
DNA 1: TTTTATGAAAGAACCTAAACTATCTCCAAA
DNA 2: TTTGGAGATAGTTTAGGTTCTTTCATAAAACCTACCCTACGTCCTCCTGC
DNA 3: GCAGGAGGACGTAGGGTAGG
For the molecule B11, in data set [2], the binding result is on record as “binds”.

What is called Kd is the concentration at which binding is half-saturated.
